The results in this text go back to patent US20120219559A1 (Johns Hopkins, published 2012).

In experiment [1] the target is human CD28, full length, expressed on cells (CD28+293T cells) (human) (UniProt P10747). Description: cell-based or functional assay.
Another experiment deals with T1, T61A.
T1 sequence (chain, by the resolver, C terminal GFP fusion, not carried in the letters): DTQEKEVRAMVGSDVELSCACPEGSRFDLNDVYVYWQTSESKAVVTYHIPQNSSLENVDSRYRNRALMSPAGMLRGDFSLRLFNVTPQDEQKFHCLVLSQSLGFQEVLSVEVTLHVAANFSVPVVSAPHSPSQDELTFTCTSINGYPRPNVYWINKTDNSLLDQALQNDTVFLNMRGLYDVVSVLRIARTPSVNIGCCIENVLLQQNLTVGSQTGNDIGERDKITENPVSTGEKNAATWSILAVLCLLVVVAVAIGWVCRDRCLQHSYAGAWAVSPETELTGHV
Description: flow cytometry on 293T cells expressing B7-H2-GFP mutants; normalised to wild type B7-H2 (100%) and vector control (0%).

Experiment [2] concerns the target T2, mouse B7-H2/hB7-H2IgV chimera, expressed on 293T cells (human; mouse, UniProt Q9JHJ8 150-322).
T2 construct: range 150-C-terminus; Mouse B7-H2 Ig V region (Met1-Val149) replaced with the corresponding human region (Met1-Gln123) in the mouse B7-H2 full length gene; also called chimeric gene product
T2 sequence: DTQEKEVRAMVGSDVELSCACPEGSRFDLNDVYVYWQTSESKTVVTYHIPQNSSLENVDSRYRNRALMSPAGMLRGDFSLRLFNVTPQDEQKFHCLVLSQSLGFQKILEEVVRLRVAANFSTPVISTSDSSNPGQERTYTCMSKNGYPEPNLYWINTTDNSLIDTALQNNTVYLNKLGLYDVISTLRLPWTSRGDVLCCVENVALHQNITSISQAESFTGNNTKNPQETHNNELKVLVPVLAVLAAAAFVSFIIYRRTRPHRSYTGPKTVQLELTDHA
Description: flow cytometry, 293T cells expressing the mouse B7-H2/hB7-H2IgV chimera (mB7-H2/hB7-H2IgV+ 293T). As to the method:
FIGS. 19A-19B. […] The results were analyzed by flow cytometry.

For a further experiment, the target named is B7-H1 (Mus musculus, UniProt Q9EP73). In words: CDS well image, 293T cells transfected with the mouse gene, stained with the mouse fusion protein.
The next experiment addresses T3, B7-DC (Mus musculus, UniProt Q9WUL5).
T3 sequence (membrane protein, looked up): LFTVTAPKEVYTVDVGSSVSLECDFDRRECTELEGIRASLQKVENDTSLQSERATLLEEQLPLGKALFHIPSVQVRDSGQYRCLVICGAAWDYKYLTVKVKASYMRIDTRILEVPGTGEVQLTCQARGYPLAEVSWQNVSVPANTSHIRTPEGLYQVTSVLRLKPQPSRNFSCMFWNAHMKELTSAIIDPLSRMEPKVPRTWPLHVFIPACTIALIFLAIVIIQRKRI
Described as above.

For the next experiment, the target named is T4, CD28 (Mus musculus, UniProt P31041).
T4 sequence (membrane protein, looked up): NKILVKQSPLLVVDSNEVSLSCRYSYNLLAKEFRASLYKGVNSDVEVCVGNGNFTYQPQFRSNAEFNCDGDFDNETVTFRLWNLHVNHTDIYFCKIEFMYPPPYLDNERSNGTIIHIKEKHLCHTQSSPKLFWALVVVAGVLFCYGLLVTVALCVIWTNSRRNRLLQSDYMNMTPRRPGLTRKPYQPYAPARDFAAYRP
The description is as above.

The next experiment deals with CTLA-4 (Mus musculus, UniProt P09793). The experiment is described as above.
Another experiment concerns the target T5, PD-1 (Mus musculus, UniProt Q02242).
T5 sequence (membrane protein, looked up): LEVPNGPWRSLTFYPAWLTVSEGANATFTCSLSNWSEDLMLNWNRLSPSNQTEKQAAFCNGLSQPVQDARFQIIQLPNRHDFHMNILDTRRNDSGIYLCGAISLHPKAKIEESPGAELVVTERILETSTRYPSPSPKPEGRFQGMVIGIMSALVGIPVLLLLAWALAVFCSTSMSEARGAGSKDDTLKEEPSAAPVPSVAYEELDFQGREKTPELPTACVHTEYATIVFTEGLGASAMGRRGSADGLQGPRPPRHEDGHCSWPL
Described as above.

The target of a further experiment is T6, ICOS (Mus musculus, UniProt Q9WVS0).
T6 sequence (membrane protein, looked up): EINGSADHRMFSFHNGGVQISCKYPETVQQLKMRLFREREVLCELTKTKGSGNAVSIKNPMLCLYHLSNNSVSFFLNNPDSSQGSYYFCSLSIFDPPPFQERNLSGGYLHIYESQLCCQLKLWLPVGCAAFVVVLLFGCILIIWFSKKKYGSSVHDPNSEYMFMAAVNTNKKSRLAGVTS
Described as above.

Experiment [3] concerns the target T7, mouse B7-H2, full length, expressed on 293T cells (mouse, UniProt Q9JHJ8 44-322).
T7 construct: whole, on cells
T7 sequence (looked up): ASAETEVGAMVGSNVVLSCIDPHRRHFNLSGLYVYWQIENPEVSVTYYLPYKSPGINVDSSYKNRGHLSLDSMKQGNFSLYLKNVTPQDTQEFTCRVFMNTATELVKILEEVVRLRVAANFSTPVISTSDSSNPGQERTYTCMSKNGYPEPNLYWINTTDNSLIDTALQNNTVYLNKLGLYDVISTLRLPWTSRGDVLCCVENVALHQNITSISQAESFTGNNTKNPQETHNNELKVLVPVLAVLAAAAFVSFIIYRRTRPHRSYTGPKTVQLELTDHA
The description is as above.

Experiment [4] addresses T8, human B7-H7Ig fusion protein (human, UniProt Q9UM44 23-344).
T8 construct: not shown: Ig Fc tag; made from pMIgV or pHIgV plasmid and detected with anti-mouse Ig
T8 sequence: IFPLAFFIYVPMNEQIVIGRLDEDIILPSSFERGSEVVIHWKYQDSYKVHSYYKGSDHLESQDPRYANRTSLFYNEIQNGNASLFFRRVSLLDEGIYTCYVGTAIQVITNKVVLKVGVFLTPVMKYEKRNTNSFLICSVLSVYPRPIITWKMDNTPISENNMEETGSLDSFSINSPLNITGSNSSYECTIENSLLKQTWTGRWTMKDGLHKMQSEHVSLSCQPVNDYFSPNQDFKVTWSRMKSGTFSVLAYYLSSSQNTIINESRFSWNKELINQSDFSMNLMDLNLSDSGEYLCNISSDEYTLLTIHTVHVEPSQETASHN
Description: CDS screen: 384-well plate of 293T cells, one human transmembrane gene a well; B7-H7Ig plus anti-mIg FMAT blue; total fluorescence per well.

The next experiment addresses T9, B7-1.
T9 chain: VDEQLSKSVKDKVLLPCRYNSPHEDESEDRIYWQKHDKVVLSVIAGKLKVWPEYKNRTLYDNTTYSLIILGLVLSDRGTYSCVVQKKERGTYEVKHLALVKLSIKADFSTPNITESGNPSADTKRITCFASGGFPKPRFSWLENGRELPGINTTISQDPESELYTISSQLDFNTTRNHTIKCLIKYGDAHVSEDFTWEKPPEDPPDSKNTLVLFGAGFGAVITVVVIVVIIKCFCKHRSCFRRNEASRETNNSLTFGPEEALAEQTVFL
Description: CDS well image, 293T cells transfected with the mouse gene, stained with the mouse fusion protein.

In another experiment the target is T10, B7-2.
T10 chain: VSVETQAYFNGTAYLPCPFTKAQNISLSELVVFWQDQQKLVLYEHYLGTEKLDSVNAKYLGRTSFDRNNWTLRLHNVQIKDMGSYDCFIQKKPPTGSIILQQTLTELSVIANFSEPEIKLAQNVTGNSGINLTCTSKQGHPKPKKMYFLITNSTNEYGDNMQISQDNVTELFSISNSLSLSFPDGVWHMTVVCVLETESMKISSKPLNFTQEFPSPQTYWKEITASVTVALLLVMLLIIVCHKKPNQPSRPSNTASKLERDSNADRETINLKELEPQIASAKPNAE
Described as above.

Sequence of B7-H1 (Q9EP73 19-290 limits assumed): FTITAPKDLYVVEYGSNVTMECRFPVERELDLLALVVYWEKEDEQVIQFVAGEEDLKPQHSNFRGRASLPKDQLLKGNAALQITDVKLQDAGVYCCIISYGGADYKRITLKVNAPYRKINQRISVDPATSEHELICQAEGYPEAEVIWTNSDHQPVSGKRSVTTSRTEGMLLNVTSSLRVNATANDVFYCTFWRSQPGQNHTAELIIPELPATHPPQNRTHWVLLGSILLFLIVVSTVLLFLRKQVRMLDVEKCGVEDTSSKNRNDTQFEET
Sequence of human CD28, full length, expressed on cells (CD28+293T cells) (human) (P10747 19-220): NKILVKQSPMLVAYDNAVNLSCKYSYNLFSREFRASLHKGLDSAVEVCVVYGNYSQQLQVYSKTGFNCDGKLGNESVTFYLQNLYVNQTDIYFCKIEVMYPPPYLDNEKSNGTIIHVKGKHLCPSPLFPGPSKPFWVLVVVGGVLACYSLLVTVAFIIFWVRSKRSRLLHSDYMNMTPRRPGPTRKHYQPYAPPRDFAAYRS

In [1], “mouse anti-human CD28 mAb CD28.6 (blocking) (antibody)” returned a tetanus toxoid-elicited proliferation of memory T cells; inhibition greater than 50%.

In the experiment with T61A, “human CTLA4Ig fusion protein (from UniProt P16410 37-162) (Fc fusion)” gave a Binding Percentage% of 32.1%.

B1: mouse CD28Ig fusion protein (Fc fusion, UniProt P31041 20-149, looked up)
chain: NKILVKQSPLLVVDSNEVSLSCRYSYNLLAKEFRASLYKGVNSDVEVCVGNGNFTYQPQFRSNAEFNCDGDFDNETVTFRLWNLHVNHTDIYFCKIEFMYPPPYLDNERSNGTIIHIKEKHLCHTQSSPK
notes: Bought from R&D Systems; Ig (Fc) part not given
Take B1: the binding result in experiment [2] was “binds”; with B7-H1 it was “no binding”; with B7-DC it was “no binding”; with CD28, “no binding”; with CTLA-4, “no binding”; in the experiment with PD-1 it was “no binding”. Moreover, the binding result (with ICOS; in experiment [3]) was “no binding” each time.

B2: human B7-H7CR, full length, expressed on 293T cells (B7-H7CR+293T cells) (receptor)
chain: LSVQQGPNLLQVRQGSQATLVCQVDQATAWERLRVKWTKDGAILCQPYITNGSLSLGVCGPQGRLSWQAPSHLTLQLDPVSLNHSGAYVCWAAVEIPELEEAEGNITRLFVDPDDPTQNRNRIASFPGFLFVLLGVGSMGVAAIVWGAWFWGRRSCQQRDSGNSPGNAFYSNVLYRPRGAPKKSEDCSGEGKDQRGQSIYSTSFPQPAPRQPHLASRPCPSPRPCPSPRPGHPVSMVRVSPRPSPTQQPRPKGFPKVGEE
notes: This id also stands for B7-H7CR on human CD4+ T cells in the functional rows; also called TMIGD2; B7-H7R
Turning to B2, in experiment [4], the binding result is reported as “binds”.

B3: B7-1Ig (Fc fusion)
chain: VDEQLSKSVKDKVLLPCRYNSPHEDESEDRIYWQKHDKVVLSVIAGKLKVWPEYKNRTLYDNTTYSLIILGLVLSDRGTYSCVVQKKERGTYEVKHLALVKLSIKADFSTPNITESGNPSADTKRITCFASGGFPKPRFSWLENGRELPGINTTISQDPESELYTISSQLDFNTTRNHTIKCLIKYGDAHVSEDFTWEKPPEDPPDSKN
notes: also called mouse B7-1Ig fusion protein; not shown: Ig (Fc) part and any linker of the R&D Systems fusion protein
On to B3, for which the binding result (with B7-1; in the experiment with B7-2; in the experiment with B7-DC; in the experiment with PD-1; with ICOS; in experiment [3]) was “no binding” in each case.

B4: B7-2Ig (Fc fusion)
chain: VSVETQAYFNGTAYLPCPFTKAQNISLSELVVFWQDQQKLVLYEHYLGTEKLDSVNAKYLGRTSFDRNNWTLRLHNVQIKDMGSYDCFIQKKPPTGSIILQQTLTELSVIANFSEPEIKLAQNVTGNSGINLTCTSKQGHPKPKKMYFLITNSTNEYGDNMQISQDNVTELFSISNSLSLSFPDGVWHMTVVCVLETESMKISSKPLNFTQEFPSPQTYWK
notes: also called mouse B7-2Ig fusion protein; not shown: Ig (Fc) part and any linker of the R&D Systems fusion protein
As for B4, the binding result in the experiment with B7-1 is “no binding”; with B7-2, “no binding”; with B7-H1, “no binding”; in the experiment with B7-DC it was “no binding”; in the experiment with CD28, “binds”; with CTLA-4 it was “binds”. Also, the binding result (with PD-1; with ICOS; in experiment [3]) was “no binding” in each case.
